Assay results taken from patent US20090068744A1, “VITREOUS CELL LINE” (SENJU PHARMACEUTICAL CO., LTD., priority 2006, published 2009).

B1: IL-1α: cytokine used to stimulate the vitreous cell line (10 ng/ml) (protein, UniProt P01583 113-271, looked up)
Interleukin-1 alpha: SAPFSFLSNVKYNFMRIIKYEFILNDALNQSIIRANDQYLTAAALHNLDEAVKFDMGAYKSSKDDAKITVILRISKTQLYVTAQDEDQPVLLKEMPEIPKTITGSETNLLFFWETHGTKNYFTSVAHPNLFIATKQDYWVCLAGGPPSITDFQILENQA
B2: PDGF-BB: cytokine used to stimulate the vitreous cell line (10 ng/ml) (protein, UniProt P01127 82-190, looked up)
Platelet-derived growth …: SLGSLTIAEPAMIAECKTRTEVFEISRRLIDRTNANFLVWPPCVEVQRCSGCCNNRNVQCRPTQVQLRPVQVRKIEIVRKKPIFKKATVTLEDHLACKCETVAAARPVT

Columns and labels:
[1] = system: VEGF mRNA expression by a vitreous cell line; assay: VEGF mRNA expression by RT-PCR after cytokine stimulation of the vitreous cell line; assay type: cell-based, swine; conditions: for VEGF mRNA expression level: cytokine 10 ng/ml, up to 48 hours, FIG. 7, FIG. 9; for VEGF mRNA level as compared to the mRNA level of non-stimulation control: RT-PCR
Description: (§1) Changes of VEGF expression due to cytokine stimulation in the vitreous cell line established in Example 1 were examined. The expression of VEGF at an mRNA level was examined by RT-PCR, and the expression at a protein level was examined by ELISA.
To be specific, when the vitreous cell line reached 50-60% confluent, the medium for the cells was exchanged with DMEM containing 1% bovine serum. […] Total RNA was extracted from the stimulated cells, cDNA was synthesized, and PCR was conducted using VEGF primers. The medium of the stimulated cells was used for ELISA. Since an appropriate antibody to swine VEGF is not available, VEGF protein concentration was measured by ELISA using an antibody to human VEGF, and the result was calculated as a reference value led from a human VEGF standard product. PCR was conducted using TOYOBO KOD plus kit and Gene PCR System 9700 (Applied Biosystem). The conditions of PCR were as follows:
(§2) 95° C. 120 seconds; (95° C. 15 seconds, 62° C. 30 seconds, 68° C. 30 seconds)×30 cycles; 68° C. 90 seconds. ELISA was entrusted to Mitsubishi BCL.

[2] = system: VEGF protein expression by a vitreous cell line; assay: VEGF protein in culture supernatant by ELISA after cytokine stimulation; assay type: cell-based, swine; conditions: cytokine 10 ng/ml; ELISA with antibody to human VEGF, relative values; FIG. 8
Description: as §1
To be specific, when the vitreous cell line reached 50-60% confluent, the medium for the cells was exchanged with DMEM containing 1% bovine serum. After culturing for 24 hours, the cells were stimulated with cytokine (IL-1α, IL-1β, TNFα, PDGF-AA, PDGF-BB or TGFβ) (10 ng/ml) for 48 hours (FIG. 6). Total RNA was extracted from the stimulated cells, cDNA was synthesized, and PCR was conducted using VEGF primers. The medium of the stimulated cells was used for ELISA. Since an appropriate antibody to swine VEGF is not available, VEGF protein concentration was measured by ELISA using an antibody to human VEGF, and the result was calculated as a reference value led from a human VEGF standard product. PCR was conducted using TOYOBO KOD plus kit and Gene PCR System 9700 (Applied Biosystem). The conditions of PCR were as follows:
as §2

Row | Molecule | VEGF mRNA expression level [1] | VEGF mRNA level as compared to the mRNA level of non-stimulation control ([1]; in 12 hours) | VEGF mRNA level as compared to the mRNA level of non-stimulation control ([1]; in 48 hours) | concentration of VEGF protein in the culture supernatant [2]
1 | B1 | increased with time | ≥ 2 fold | ≥ 2.5 fold | increased with time
2 | B2 | a significant change in the VEGF mRNA expression level was not observed |  |  | 
